# Results from the supplement of paper PMC6757056.
# ± gives the standard deviation of the averaged measurements.
# B1: library; a variant is named by its letters at N, in order (parent)
# chain: GCUGUCACCGGUGCUUGGUACGUUAUAUUCAGCCGGUCUGAUGAGUCUNNNNNNAGACGAAACAGC
# Experiments:
# [1] = variants of: B1; assay: normalized RNA/DNA level without ligand (relative to sTRSVctl = 100) (log10 (% of sTRSVctl)); HEK293T overexpressing SLC46A1; higher = less ribozyme self-cleavage, higher mRNA level; settings: without (6R,S)-folinic acid; ligand present: no
# In short: (§1)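 For each 6-well well, 4 µg of library plasmid encoding mCherry-linked ribozyme switches, or eGFP-linked ones in some ligand experiments, was transfected into HEK293T. Any ligand was added 1 h before transfection, and RNA was extracted with EDTA 72 h after it, then reverse-transcribed, amplified, barcoded and sequenced. RNA level was obtained by dividing RNA reads by DNA reads, normalizing to a spiked-in non-cleaving sequence or to the top sequences, then scaling and log-transforming. The top set was 25 sequences, scaling was ×100 with log10, and ≥100 DNA reads were required.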
# [2] = variants of: B1; assay: normalized RNA/DNA level with ligand (relative to sTRSVctl = 100) (log10 (% of sTRSVctl)); HEK293T overexpressing SLC46A1; ligand concentration (+) RNA-Seq: 6 mM; higher = less ribozyme self-cleavage, higher mRNA level; settings: with (6R,S)-folinic acid; ligand present: yes
# In short: as §1
Variant,normalized RNA/DNA level without ligand (log10) [1],normalized RNA/DNA level with ligand (log10) [2]
GUUCCG,2.032 ± 0.011,2.02 ± 0.04
GUUCCC,2.075 ± 0.018,2.052 ± 0.017
GUUCCU,2.03 ± 0.0037,2.04 ± 0.045
CUUCUA,2.0515 ± 0.00054,2.083 ± 0.015
CUUCUU,2.016 ± 0.0066,1.97 ± 0.025
CUUCUC,2.05 ± 0.0097,2.02 ± 0.056
CUUCUG,2.06 ± 0.021,2.026 ± 0.0091
UUUCGC,2.01 ± 0.016,2 ± 0.011
UUUCGU,1.98 ± 0.017,2.01 ± 0.012
UUUCGA,2.0498 ± 0.00034,2.04 ± 0.024
UUUCGG,1.9984 ± 0.00042,1.99 ± 0.022
CUUGAA,1.958 ± 0.01,1.99 ± 0.049
CUUGAC,1.998 ± 0.0057,2.033 ± 0.0045
CUUCAA,2.023 ± 0.0088,2.05 ± 0.042
CUUCAC,2.027 ± 0.0051,1.988 ± 0.011
CUUCAG,2.027 ± 0.015,2.099 ± 0.011
CUUCAU,2 ± 0.0049,1.99 ± 0.037
UUUUAA,1.973 ± 0.018,2.03 ± 0.02
UUUUAU,2.007 ± 0.016,2.02 ± 0.023
GUUCAU,2.019 ± 0.0083,2.02 ± 0.034
GUUCAG,1.963 ± 0.0042,2 ± 0.043

Variant,normalized RNA/DNA level without ligand (log10) [1],normalized RNA/DNA level with ligand (log10) [2]
CUUGGU,2.01 ± 0.021,2.01 ± 0.029
GUUGGC,1.914 ± 0.019,2.02 ± 0.036
GUUGGG,1.912 ± 0.013,2.042 ± 0.017
GUUCGA,2.018 ± 0.0029,2.001 ± 0.015
GUUCGU,1.998 ± 0.019,2.01 ± 0.035
GUUUCC,2.021 ± 0.015,2 ± 0.068
GUUUCU,1.965 ± 0.012,1.97 ± 0.068
GUUUCA,2.03 ± 0.034,1.99 ± 0.04
GUUUCG,1.99 ± 0.027,1.99 ± 0.039
GUUCUC,2.112 ± 0.0075,2.076 ± 0.02
GUUCUU,2.0414 ± 0.0017,2.04 ± 0.028
GUUCUG,1.981 ± 0.015,1.987 ± 0.014
AUUGUA,1.941 ± 0.016,2 ± 0.02
AUUGUC,2.06 ± 0.038,2.05 ± 0.066
AUUGUU,1.988 ± 0.0071,1.998 ± 0.008
CUUAUG,2.013 ± 0.005,2.0211 ± 0.00067
CUUAUA,1.961 ± 0.019,2 ± 0.029
CUUAUC,2.089 ± 0.009,2.08 ± 0.033
AUUCGU,1.99 ± 0.0072,1.97 ± 0.057
AUUCGC,2.039 ± 0.0092,2.06 ± 0.041
AUUCGG,1.952 ± 0.017,2.04 ± 0.026

Variant,normalized RNA/DNA level without ligand (log10) [1],normalized RNA/DNA level with ligand (log10) [2]
AUUCGA,1.992 ± 0.0073,2.03 ± 0.035
UUUUCU,2.012 ± 0.011,2.01 ± 0.038
UUUUCA,2.018 ± 0.011,2.02 ± 0.041
UUUUCC,2.02 ± 0.022,2 ± 0.032
UUUUCG,1.87 ± 0.018,1.998 ± 0.0083
CUUGCA,2.019 ± 0.0087,2.03 ± 0.043
CUUGCG,2.03 ± 0.017,2.01 ± 0.029
CUUGCC,2.03 ± 0.0023,2 ± 0.064
CUUGCU,2.051 ± 0.0067,2.04 ± 0.012
AUUAUC,2.062 ± 0.01,2.03 ± 0.022
AUUAUG,1.94 ± 0.021,2.02 ± 0.033
AUUAUA,1.9581 ± 0.0013,1.97 ± 0.025
CUUGUA,2.027 ± 0.018,2.036 ± 0.013
CUUGUU,2.02 ± 0.03,1.995 ± 0.018
CUUGUC,2.091 ± 0.018,2.06 ± 0.027
AUUUGC,2 ± 0.02,1.99 ± 0.026
AUUUGU,1.945 ± 0.002,2.02 ± 0.042
AUUUGA,1.965 ± 0.0074,2 ± 0.053
UUUGGU,1.953 ± 0.013,1.98 ± 0.071
UUUGGC,1.995 ± 0.0079,2.04 ± 0.027
UUUUGC,1.959 ± 0.0097,1.93 ± 0.055
